Positions count from the first letter of the chain named.

Assay [1] concerns the target human IL-4Rα (hIL-4Rα) monomeric protein (human) (UniProt P24394). The assay is described as follows: barcoded-antigen count on source cell (scRNA-seq).
Assay [2] concerns the target human IL-6Rα (hIL-6Rα), barcoded negative control antigen (human) (UniProt P08887). Nature of the assay: barcoded-antigen count on source cell (scRNA-seq).

Chain of human IL-6Rα (hIL-6Rα), barcoded negative control antigen (human) (P08887 20-358 limits assumed): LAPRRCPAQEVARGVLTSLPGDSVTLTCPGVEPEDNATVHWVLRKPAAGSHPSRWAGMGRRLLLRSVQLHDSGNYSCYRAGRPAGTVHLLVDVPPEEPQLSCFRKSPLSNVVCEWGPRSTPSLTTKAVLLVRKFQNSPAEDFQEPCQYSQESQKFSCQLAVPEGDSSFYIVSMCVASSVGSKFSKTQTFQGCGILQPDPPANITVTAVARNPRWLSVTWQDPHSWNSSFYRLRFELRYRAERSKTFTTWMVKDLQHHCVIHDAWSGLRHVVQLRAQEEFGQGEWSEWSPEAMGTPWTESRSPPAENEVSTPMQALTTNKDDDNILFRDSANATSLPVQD

B1: Table 1 Line # 48 antibody (SP_Plasma_cell) (antibody, human IgG4, V domains shown)
VH: EVQLVESGGVLVQPGRSLRLSCAASGFTFDDFAMHWVRQAPGKGLEWVSGISWNGNSIGYADSVKGRFTISRDNAKNSLYLQMNSLRTEDTALYYCAKDTSSWSYYYGMDVWGQGTTVTVSS
VL: DIQMTQSPSSLSASVGDRVTITCRASQGIRNDLGWYQQKPGKAPKRLIYAASNLQSGVPSRFSGSGSGTEFTFTISSLQPEDFATYYCLQHNSYPYTFGQGTKLEIK
In assay [1], B1 yielded an REGN560.L15 ab raw of 1240 counts. The molecule further came in with an REGN78.L15 ab raw in assay [2] of 17 counts.

B2: Table 1 Line # 54 antibody (SP_Plasma_cell) (antibody, human IgG4, V domains shown)
VH: QVQLVQSGAEVKKPGASVKVSCKASGYTFTNYGISWVRQAPGQGLEWMGWISVYNGNTNYAQKLQGRVTMTTDTSTSTAYMEVRSLRSDDTAVYYCARGVNWNYVFDYWGQGTLVTVSS
VL: B1 VL with A50V, A51V, N53S, F73L, Y96W, L104V
With B2, the REGN78.L15 ab raw in assay [2] worked out at 26 counts.

B3: Table 1 Line # 53 antibody (SP_Plasma_cell) (antibody, human IgG4, V domains shown)
VH: EIQLVESGGGLVQPGRSLRLSCAASGFTFDDYAMHWVRQAPGKGLEWVSGINWNNGSLGYADSVKGRFTISRDNAKNSLYLQMNSLRTEDTALYYCVKDTGSWASYYGMDVWGHGTTVTVSS
VL: B1 VL with V15I, N53S, F73L
B3: the REGN78.L15 ab raw in assay [2] is 5 counts.

B4: Table 1 Line # 11 antibody (BM_Plasma_cell) (antibody, human IgG4, V domains shown)
VH: EVQLVESGGGLVQPGRSLRLSCAASGFTFDDYAMHWVRQAPGKGLEWVSGISWNSGSIGYADSVKGRFTISRDNAKNSLYLQMNSLRAEDTALYYCARDYSSAWYGYFDSWGQGTLVTVSS
VL: DIQMTQSPSSLSASVGDRVTITCRASQGINNYLAWYQQKPGKIPKLLIFTASTLQSGVPSRFSGSGSGTDFTLTINSLQPEDVATYYCQNYNSVPRTFGQGTKVEIK
The molecule B4 displayed an REGN78.L15 ab raw in assay [2] of 115 counts.

B5: Table 1 Line # 15 antibody (BM_Plasma_cell) (antibody, human IgG4, V domains shown)
VH: B4 VH with G10A, T28A, S55G, G56A, I58L, V64L, A88S, Y94F, S110Y
VL: B4 VL with G28D, N30S, I43V, F49Y, T50A, N76S, E81Q
In the case of B5, in assay [2], the REGN78.L15 ab raw came to 158 counts.

B6: Table 1 Line # 12 antibody (BM_Plasma_cell) (antibody, human IgG4, V domains shown)
VH: QVQLVESGGGVVQPGRSLRLSCAASGFTFSSYGMHWVRQAPGKGLEWVSVISYDGSNKYYADSVKGRFTISRDNSKNTLFLQVNSLRAEDTAVYYCAKEGRTGFDYWGQGTLVTVSS
VL: B4 VL with S26R, N30S, Y36F, I43V, F49Y, T50A, N76S, N90K, V94A, R96W
B6 registered an REGN78.L15 ab raw in assay [2] of 348 counts.

B7: Table 1 Line # 49 antibody (SP_Plasma_cell) (antibody, human IgG4, V domains shown)
VH: EVHLLESGGGFIQPGGSLRLSCAASGFTFSTYAMNWVRLAPGKGLEWVSTISGSGGFTSYTDSVQGRFTISRDNSKNKLYLQINNLTAEDTAVYYCAKDRRIVGATGFDYWGQGALVTVSS
VL: DIQMTQSPSSLSASAGDRVTITCRASQSISSYLNWYQQKPGKAPKLLIYAASSLQSGVPSRFSGSGSGTDFTLTISSLQPEDSATYYCQQSYGFHTFGQGTRLEIK
In assay [2], B7 displayed an REGN78.L15 ab raw of 2 counts.

B8: Table 1 Line # 38 antibody (SP_B_cell) (antibody, human IgG4, V domains shown)
VH: EVHLVESGGGLAKPGGSLRLSCTASGFTFSTYNLNWVRQAPGKGLEWVSYISRSSVYIYYADSLKGRFTISRDDAKNSLYLQMNSLRAEDTAVYYCVRDDYGDYVPLDYWGQGTLVTVSS
VL: AIQMTQSPSSLSASVGDRITITCRASQGISNDLGWYQQKPGKAPKLLIFAASSLQSGVLSRFSGSGSGTDFTLTISSLQPEDVATYFCLQDYNFPRTFGQGTKVEIK
In assay [1], B8 returned an REGN560.L15 ab raw of 6050 counts. In assay [2], this molecule showed an REGN78.L15 ab raw of 66 counts.

B9: Table 1 Line # 33 antibody (SP_B_cell) (antibody, human IgG4, V domains shown)
VH: EVQLLESGGGLVQPGGSLRLSCAASRFTFSNYEMNWVRQAPGKGLEWLSYINTSGTTIYYADSVKGRFTISRDNAKNSLYLQMNSLRAEDTAVYYCARVNWNSDAFDIWGQGTMVTVSS
VL: EIVMTQSPATLSVSPGERATLSCRASQIVGSNLAWYHQKPGQAPRLLIYSASTRATGIPARFSGSGSGTEFTLTISSLQSEDFAVYYCQQYNNWPPFTFGPGTKVDIK
In assay [1], B9 yielded an REGN560.L15 ab raw of 7340 counts. For the same molecule, the REGN78.L15 ab raw in assay [2] turned out to be 106 counts.

B10: Table 1 Line # 39 antibody (SP_B_cell) (antibody, human IgG4, V domains shown)
VH: EVQLVESGGDLVQPGRSLRLSCAASGFTFDDYAMYWVRQTPGKGLEWVSRITWNSGSIGYAGSVQGRFTISRDNAKNSLYLQMNSLRAEDSALYYCAKDIGGSYLGFDYWGQGTLVTVSS
VL: EIVLTQSPGTLSLSPGERVTLSCRASQSVSATYFAWYQQKPGQPPRLLIYGASNRATGIPDRFSGSGSGTDFTLTISRLEPEDFAVYYCQQNGNSYTFGQGTILEIK
B10 registered an REGN560.L15 ab raw in assay [1] of 3560 counts. The molecule also displayed an REGN78.L15 ab raw in assay [2] of 17 counts.

B11: Table 1 Line # 22 antibody (SP_B_cell) (antibody, human IgG4, V domains shown)
VH: B10 VH with D10G, T40I, R50G, A88V, S91T, T114A
VL: B10 VL with I2T, A31S, F34L, P44A, N92Y, N94S, I103K
In assay [1], B11 showed an REGN560.L15 ab raw of 14000 counts. In assay [2], this molecule gave an REGN78.L15 ab raw of 5 counts.

B12: Table 1 Line # 3 antibody (BM_Plasma_cell) (antibody, human IgG4, V domains shown)
VH: EVQLVESGGGLVQPGRSLRLSCAASGFTFDDYAMHWVRQVTGKGLEWVSGINWNSGNIGYADSVRGRFTISRDNAKNSLYLQMNSLRAEDTALYYCAKDSGSSWYGYFDLWGRGTLVTVSS
VL: DIQMTQSPSTLSASVGDRVTITCRASQSISRWLAWYQQKPGKAPKFLIYKASSLESGVPSRFSGSGSGTEFTLTISSLQPDDFATYYCQQYNSDSRTFGQGTKVEIK
For B12, in assay [2], the REGN78.L15 ab raw stood at 236 counts.

B13: Table 1 Line # 40 antibody (SP_Plasma_cell) (antibody, human IgG4, V domains shown)
VH: QVQLQESGPGLVKPSETLSLTCTISGGSISTYYWSWIRQPPGKGLEWIGYIYYSGNTNYNPSLKSRVTISVDTSKNQFSLKLNSVTAADTAVYYCARHRGSYVYGMDVWGQGTTVTVSS
VL: DIQMTQSPSSLSASLVDRVTITCRASQTISSYLNWYQQKPGKAPKLLIYGASILQSGVPSRFSGSGSGTDFTLTISSLQPEDHAVYFCQQSYSSPTFGGGTKVEIK
In assay [2], B13 came in with an REGN78.L15 ab raw of 1 counts.

B14: Table 1 Line # 46 antibody (SP_Plasma_cell) (antibody, human IgG4, V domains shown)
VH: EVQLEASGGDLVQPGRSLRLSCAASGFIFDDFGMHWVRQAPGKGLEWVSGISWNGGHIGYADSVKGRFTISRDNAKNSLYLQMNSLRAEDTALYYCAKEHSSSWYGFFDFWGRGTLVTVSS
VL: DIQMTQSPSSLSASVGDRVTITCRASQGLSNSVAWYQQKPGQIPRLLISAAASLQSGVPSRFSGSGSGTDFTLTISRLQPEDVATYYCQNYNSAPRTFGQGTNVEIK
In assay [2], B14 gave an REGN78.L15 ab raw of 2 counts.

B15: Table 1 Line # 37 antibody (SP_B_cell) (antibody, human IgG4, V domains shown)
VH: QVHLVESGGDVVQPGRSLRLSCAASGFTFSYYGMHWVRQAPFKGLEWVAVIWYDGSNKYYADSVKGRFTITRDNSKNTVYLQMNSLRAEDTAIYYCARWGGFGVTGTHLDYWGQGTLVTVSS
VL: DIQLTQSPSLLSASVGDRVTITCWASQDIAGHFAWYQQKPGTVPKLLIYAISTLDSGVPSRFSGSRSGTEFTLTISSLQPEDFATYYCQHLNSYPYTFGQGTKLEIK
The molecule B15 yielded an REGN78.L15 ab raw in assay [2] of 60 counts.

B16: Table 1 Line # 35 antibody (SP_B_cell) (antibody, human IgG4, V domains shown)
VH: EVQLVESGGGLVKPGGSLRLSCAASGFTFSSYSMNWVRQAPGKGLEWVSSISSSSSYIYYADSVKGRFTISRDNAKNSLYLQMNSLRAEDTAVYYCARDRSSSPLENWGQGTLVTVSS
VL: DIQMTQSPSSVSASVGDRVTITCRASQGISSWLAWYQQKPGKAPKLLIYAASSLQSGVPSRFSGSGSGTDFTLTISSLQPEDFATYYCQQANSFPITFGQGTRLEIK
B16: the REGN78.L15 ab raw in assay [2] was found to be 33 counts.

B17: Table 1 Line # 1 antibody (BM_Plasma_cell) (antibody, human IgG4, V domains shown)
VH: EVQLVESGGGLVKPGGSLRLSCAASGFTFSSYSMNWVRQAPGKGLEWVSSISSSSSYIYYADSVKGRFTISRDNAKNSLYLQMNSLRAEDTAVYYCASLAARPFWGQGTMVTVSS
VL: B16 VL with K42R, I96L, Q100G, R103K, L104V
As for B17, the REGN78.L15 ab raw in assay [2] came to 271 counts.

B18: Table 1 Line # 50 antibody (SP_Plasma_cell) (antibody, human IgG4, V domains shown)
VH: EVKLLESGGGLVQPGGSLRLSCAASGFSFSTYAMNWVRQAPGKGLEWVSAITGSGGSTYYADSVKGRFTMSRDNSKNTLYLQMNSLRAEDTAVYYCAKDRRGAFDIGGQGTMVTVSS
VL: B16 VL with A43V, L46F, S53N, I96F, Q100P, R103K, L104V, E105D
In assay [1], B18 yielded an REGN560.L15 ab raw of 924 counts.

B19: Table 1 Line # 30 antibody (SP_B_cell) (antibody, human IgG4, V domains shown)
VH: EVQLVESGGGMVQPGRSLRLSCAASGFTFDDYAMHWVRQAPGKGLEWVSGIKWNGGNIGYADSVKDRFTISRDNAKNSLFLQMNSLRAEDAALYSCAKDIGGSQYALDVWGQGTTVTVSS
VL: DIQMTQSPSSLSASVGDRVTITCRASLSIGSYLNWYQKKPGKAPKLLIFVASSLQGGVSSRFSGSGSGTDFTLTISSLQPEDFATYYCQQTYSTPFTFGPGTKVDIK
The molecule B19 registered an REGN560.L15 ab raw in assay [1] of 9180 counts. The same molecule came in with an REGN78.L15 ab raw in assay [2] of 179 counts.

B20: Table 1 Line # 18 antibody (BM_Plasma_cell) (antibody, human IgG4, V domains shown)
VH: EVQLVQSGAEVKKPGESLKISCKGSGYRFTTNWIGWVRQMPGKGLEWMGIIYPDDSDTRYSPSFQGQVTISADKSINTAYLHWNSLKSSDTAIYYCARGANWFDPWGQGTLVTVSS
VL: EIVLTQSPGILSLSPGKRATLSCRASQSVSSNFLAWYQQKPGQAPRLLIYGTSSRANGIPDRFSGSGSGTDFTLTISGLEPEDFAEYYCQQYGSSVTFGQGTRLEIK
Molecule B20 displayed an REGN78.L15 ab raw in assay [2] of 55 counts.

B21: Table 1 Line # 47 antibody (SP_Plasma_cell) (antibody, human IgG4, V domains shown)
VH: ELQLVESGGGLVQPGRSLRLSCAASGFPFDAYAMHWVRQAPGKGLQWVSGIRWNGGNIDYVDSVKGRFTISRDNAKNSLYLQLNSLRSEDTALYYCAKDLGGSHYALDVWGQGTMVTVSS
VL: DIQMTQSPSSLSASVGARVTITCRASQSINNDLNWYQQKPGKAPKFLIYAASSLQSGVPSRFSGRGSGTDFTLTIRSLQPEDFAVYYCQQTYSSPFTFGPGTKVDLK
For B21, the REGN560.L15 ab raw in assay [1] was 1520 counts. The molecule also came in with an REGN78.L15 ab raw in assay [2] of 6 counts.

These data come from patent publication US20230349919A1.
